Assay: yeast display, Sf9 membrane polyspecificity reagent, FACS + sequencing; frameworks hold sequencing errors
Method in brief: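 In a synthetic yeast display library (Saccharomyces cerevisiae BJ5465), nanobody expression was induced with galactose for 36–48 hours. FACS gates were set low and high (top ~1%) using anti-HA fluorescence for expression and streptavidin fluorescence for binding of the Sf9 membrane reagent. Each polyreactivity label is drawn from the gate of origin.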

| Sequence | polyreactivity (PSR sort gate) |
| --- | --- |
| QVQLVESGGGLVQAGGSLRLSCAASGFTFIRYAMGCYRQAPGKERELVAAIRGTGTSTYYADSVKGRFTISRDNAKNTVYLQMNSLKPEDTAVYYCNKVAGRSPYTRYDYWGQGTQVTVSS | low polyreactivity |
| QVQLVESGGGLVQAGGSLRLSCAASGLTFDSNAMGWYRQAPGKERELVAAISGSVGSTYYADSVKGRFTISRDNAKNTVYLQMNSLKPEDTAVYYCNASSVDKGYDYWGQGTQVTVSS | low polyreactivity |
| QVQLVESGGGLVQAGGSLRLSCAASGSTFKAYAMGWYRQAPGKERELVAAITKSGGRTYYADSVKGRFTISRDNAKNTVYLQMNSLKPEDTAVYYCAAVFRPDSSAYRYYYWGQGTQVTVSS | high polyreactivity |
| QVQLVESGGGLVQAGGSLRLSCAASGRIFWDNALGWYRKAPGTERELVAAISDSVVITYYADSVKGRFTISRDNAKNTVYLQMNSLKPEDSAVYYCAAGGWPYSGGWFFQPNYDYWGQGTQVTVSS | low polyreactivity |
| QVQLVESGGGLVQAGGSLRLSCAATGRIFRYYAMGLYRQAPGNERELVAAIRRGGSTTYADSVKGRFTISRDNAKNTFYLQMNSLKPEDTAVYYCAATQYYRGYDYWGQGSQVTVSS | high polyreactivity |
| QDQLVESRGGLVQAGGSLRLSCAASGSTFVNNAMGWYRQAPGKERELVAAIRSSDGRTYYADSVKGRFTISRDNAKNTVYLQMNSLKPEDSAVYYCATAVGTKYRTRIFEFYYWGQGTQVTVSS | high polyreactivity |
| QVQLEESGGGLVQAGGSLRLSCAASGSTYPSNAMGWYRQATGKERELVATITTGGSTYYADSVKGRFTISRDNAKNTVYLQMNSLKPEDTAVYYCNAEYVYLIFSVYLYDYDYWGLGTQVTVSS | low polyreactivity |
| QVQLVESGGGLVQAGGSLRLSCAASGYTFVVYAMGWYRQAPGKERELVARISSGGSTFYADSVKGRFTISRDNAKNTVYLQMNSLKPEDTAVYYCAAQWTRYRRRPMDYWGQGTQVTVSS | high polyreactivity |
| QFQLVESGGGLVQAGGSLRLSCAASGSTFYTNAMGWYRQAPGKERELVAAITSRTGSTYYADSVKGRFTISRDNAKNTVYLQMNSLKPEDTAVYYCAADIYDWGGHYEYWGQGTQVTVSS | high polyreactivity |
| QDQLVESGGGLVQAGGSLRLSCAASVSIFGSYAMGWYRQAPGKERELVAGITSSGGSTYYADSVKGRFTISRDNAKNTVYLQMNSLKPEDTAVYYCNAPLGWWQFYYCGQGTQVTVSS | high polyreactivity |
| QVQLVESGGGLVQAGGSLRLSCAASVSIFARYAMGWYRQAPGKERELVAAITSGTSTNYADSVKGRFTISRDNAKNSVYLQMNSLKPEDTAVYYCNARHTWHQTYDYCGQGTQVTVSS | low polyreactivity |
| QVQLVESGGGLVQAGGSLRLSCAASGRTLSHYAMGWYRQAPGKERELVAAITRSGGSTYYADSVKGRFTISRDNAKNTVYLQMNSLKPEDTAVYYCNKTLYTTYDYWGQGTQVTVSS | low polyreactivity |
| QVQLVESGGGLVQAGGSLRLSCAASGFIFGVNAMVWYRQAPGKERELVAAITRNGGSTYYADSVKGRFTISRDNAKNTVYLQMKSLKPEDTAVYYCAKYVRRAPSTFDVDYWGQGTQVTVSS | high polyreactivity |
| QVQLVESGGGLVQAGGSLRLSCAASGSIFGVNAMGWYRQAPGKERELVAAISNSGVRKYYADSVKGRFTISRDNAKNTVYLQMNSLKPEDTAVYYCARTYQVGDSIDDYWGQGTQVTVSP | low polyreactivity |
| QVQLVESGGGLVQAGGRLRLSCAASGRTFYINTMGWYRQAPGKERELVAAISSSGDSTYYADSVKGRFTISRDNAKNTVYLQMNSLKPEDTAVYYCATDYGWYDYWGQGTQVTVSS | low polyreactivity |
| QVQLVESGGGLVQAGGSLRLSCAASGRTFRRYAMGWYRQAPGKEREFVAAIRYSGGITYYADSVKGRFTISRDNAKNTVYLQMNSLKPEDTAVYYCAAYGWGNRWYSRFDYWGQGTQVTVSS | high polyreactivity |
| QVQLVESGGGLVQAGGSLRLSCAASGSTFYLYAMGWYRQAPGKERELVAAISRGGTTYYADSVKGRFTISRDNAKNTVYLQMNSLKPEETAVYYCNARYTSRRSRRPYYYWGQGTQVTVSS | high polyreactivity |
| QVQLVESGGGLVQAGGSLRLSCAASGRTFLSYMGWYRQAPGKERELVAISRSGTSTYYADSVKGRFTISRDNAKNTVYLQMNSLKPEDTAVYYCAATRRYPQYRGYDYWGQGTQVTVSS | high polyreactivity |
| QVQLVDSGGGLVQAGGSLRISCAASGSTFSINTMGTYRQAPGKERELVAAITTRGSSTYYADSVKGRFTISRDNAKNTVYLKMNSLKPEDTAVYYFNAPYRVTGGRYRWYDYWGQATQVTVSS | high polyreactivity |
| QVQLVESGGGLVQAGGSHRLSCAASGSILSYYAMGWYRQAPGQEREFVAAIRTRGGSTYYADSVKGRFTISRDNAKNTVYLQMYSLKPEDTAVYYFAARTRPDRVRQGRYYYWGQGTQVTVSS | high polyreactivity |
| QVQLVESGGGLVQAGGSLRLSCAASGRIFRYYAMGWYRQAPGKERELVAAITSGGNTYYADSVKGRFTISRDNAKNTVYLQMNSLKPVDTAVYYCADGRNLYHFYYWGQGTQVTVSS | high polyreactivity |
| QVQLVESGGGLVQAGGSLRLSCAASGSIFVSYAMGWYSQAPGKERELVAVISYSGVSTYYADSVKGRFTISRDNAKNTVYLQINSLKPEDTAVYYCATRQYGTRHILKYNYWGQGTQVTVSS | low polyreactivity |

| Sequence | polyreactivity (PSR sort gate) |
| --- | --- |
| QVQLVESGGGLVQAGGSLRLSCAASGSTFSYYDMGWYREAPGKERELVAVITTSGVSTYYADSVKGRFTISRDNAKNTVYLQMNSLKPEDTAVYYCNADYGYDSVVEYDYWGQGTQVTVSS | low polyreactivity |
| QVQLVESGGGLVQAGGSLRLSCAASGSIFYNAMGWYRQAPGKERELVAAISQRGTRTYYADSVKGRFTISRDNAKKTVYLQMNSLKPEDTAVYYCNRGGWRQYDSWGQGTQVTVSS | high polyreactivity |
| QVQLVESGGGLVQAGGSLRLSCAASGNIFYAYDMGWYRQAPGKERELVAAITNGDSTDYADSVKGRFTISRDNAKNTVYLQMNSLKPEDTAVYYCNAYYLPEPWALGGSQYDYWGQGTQVTVSS | low polyreactivity |
| QVQLVESGGGLVQAGGSLRLSSAASGRLFSEYAMGWYRQAPGKERELVAAISRRGGRTYYADSVKGRFTISRDNAKNTVYVQMNSLIPEDTAVYYCAADHGDPGGYDYWGQGSQVTVSS | high polyreactivity |
| QVQLVESGGGLVQAGGSLRLSCAASGFTFPEYTMGWYRQAPGKERELVAAISWSGGSTYYADSVKGRFTISRDNAKNSVYLQMNSLKPEDTAVYYCNWKRGYGYWGQGTQVTVSS | high polyreactivity |
| QVQLVESGGGLVQAGGSLRLSCAASGRIFWYYAMGWYRQAPGKERELVADISTGGSTNYADSVKGRFTISRDNAKNTVYLQMNSLKPEDTAVYYCATTVPVILYVTPSTYAVVGYEYWGQGTQVTVSS | low polyreactivity |
| QVQLVESGGGLVQAGGSLRLSCAASGLTLYINAMGWYRQAPGKERELVAAIRTVGRTRYADSVKGRFTISRDNAKNTVYLQMNSLKPEDTAVYYCNARRYLRGYGYGYWGQGTQVTVSS | high polyreactivity |
| QVQLVESGGGLVQAGGSLRLSCAASGSIFEPYAMGWYRQAPGKERELVAAISWDVGRTYYADSVKGRFTISRDNAKNTVYLQMNSLKPEDTAVYYCAAEIAIDGYYKSWYDYWGQGTQVTVSS | high polyreactivity |
| QVQLVESGGGLVQAGGSLRLSCAASGRIFSENAMGWYRQAPGKERELVAAISVSGGSTYYADSVKGRFTISRDNAKNTVYLQMNSLKPEDTAVYYCAAEYLAYYSGYDYWGQGTQVTVSS | high polyreactivity |
| QVQLVESGGGLVQAGGSLRLSCAASGFTFASYVMGWYRQAPGKERELVAAISYSGGYTYYADSVKGRFTISRDNAKNTVYLQMNSLKPEDTAVYYCNARYLQGYSGRYGYWGQGTQVTVSS | high polyreactivity |
| QVQLVESGGGLVQAGGSLRLSCAPSGLTIVTYAMGWYRQAPRKERELVAAISRSGGSTYYADSVKGRFTISRDNAKNTVYLQMNSLKPEDSAVYYCNAYSYVDLWAVYRYDYWGQGTQVTVSS | high polyreactivity |
| QVQLEESVGGLVQAGGSLRLSCAASGLTFRAYAMGWYRQAPGKERELVAAISSGGSTSYADSVKGRFTISRDNANITVYLQMNRLKPEDSAVYYCAADRARRGIRDYYWGQGTQVTVSS | high polyreactivity |
| QVQLVESGGGLVQAGGSLRLSCAASGFTYRNYAMGWYRQAPGKERELVAAISRGGGSTYYADSVKGRFTISRDNAKNTVYLQMNSLKPEDTAVYYCAVAYPFYVKTLFSPEADYNYWGQGTQVTVSS | high polyreactivity |
| QVQLVESGGGLVQAGGSLRLSCGASGRTFISNAMGWYRQAPGKERELVATINSGGSTNYADSVKGRFTISRDNAKNTVYLQMNSLKPEDTAVYYCARRVRYKHYDYWGQGTQVTVSS | high polyreactivity |
| QVQLVESGGGLVQAGGSLRLSCAASGSTFRYYTMGWYRQAPGKERELVAAITYSGGSTYYADSVKGRFTISRDNAKNTVYLQMNSLKPEDTAVYYCAKRWSQPKYDYWGQGTQVTVSS | high polyreactivity |
| QVQHEESGGGLVQAGGSLRLSCAASGFTFGTNAMGWSRQAPGKERELVAAISTRGGSTYYADSVKGRFTISRDNAKNTVYLQMNSLKPEDTAVYYCAAYWGRTRYYGYDYYYWGQGTQVTVSS | high polyreactivity |
| QVQLVESGGGLVQAGGSLRLSCAASAFTFQNYAMGWYRQAPGKERELVAAIDSRGGRTYYADSVKGRFTISRDNAKNTVYLQMNSLKPEDTADDYCAVAENSRFGSVGYYYWGQGTQVTVSS | low polyreactivity |
| QVQLVESGGGLVQAGGSLRLSCAASGRTFGLYAMGWYRQAPGKERELVAAMSYSGGSTYYADSVQGRFTISRDNAKNTVYLQMNSLKPEDTAVYYCAAVYYYASRTSKQPYYDWGQGTQVTVSS | high polyreactivity |
| QVQLVETGGGLVQAGGSLRLSCAASGRIFGVNARGWYRQAPGKERELVAAIFSGGSTYYADSVKGRFTISRDNAKNTVYVEMNSLKPEDTAVYYCAARFARYDWSMYYWGQGTQVTVSS | low polyreactivity |
| QVQLVESGGGLVQAGGSLRLSCAASGSIFSPYAMGWYRQAPGKERELVDAISFRASTTYYADSVKGRFTISRDNAKNTVYLQMNSLKPEDTAVYYCAASPLYSWFWGLYDYWGQGTQVTVSS | low polyreactivity |
| QVQLIESGGGLVKAGGSLRLSCAATGSIFYRNTMGWYRQAPGKERELVARISWSGGRTYYADSVKGRFTISRDNAKNTVYLQMNSLKPEDTAVYYCAASTYGQRGTSYGYWGQGTQVSVSS | low polyreactivity |
